Test results: article PMC9378758

Target: Chikungunya virus (CHIKV) strain S27 E1 glycoprotein (Chikungunya virus strain S27)
Experiment: cryo-EM structure; cryo-ET with sub-tomogram averaging (PEET) of 591 protein spikes on liposomes after completed fusion with CHIKV at low pH, late time points, room temperature; 27.2 Å at 0.5 FSC; 3-fold symmetry seen before it was imposed

## Chikungunya virus (CHIKV) strain S27 E1 glycoprotein (natural protein)
  stoichiometry N: 3
